Data reported in PMC12292926, “PELP1 coordinates the modular assembly and enzymatic activity of the rixosome complex” (Science Advances, 2025).

Key:
[1] = target: recombinant human histone octamer (human) (UniProt P0C0S8); assay: SEC; histone chaperone assay: MBP-PELP1 variant and histone octamer mixed at 1:1 or 2:1 in >1.2 M NaCl, dialysed stepwise to 0.3 M NaCl, 10 mM Hepes pH 7.5, 4°C; S200 10/300 gel filtration in the low-salt buffer; SDS-PAGE of fractions
[2] = target: T1, N-terminal 6× His-tagged human SENP3 protease domain (302 to 574aa) (human, UniProt Q9H4L4 302-574); assay: SEC; purified components mixed at equimolar amounts (20 to 80 μM), 4°C for at least 30 min; S200 10/300 analytical column; SDS-PAGE of fractions; details: both partners purified
T1 construct: E. coli codon-optimized gene (Genscript) in pET11a; source: E. coli, purified (His60 Ni resin, S200 gel filtration)
T1 sequence (Q9H4L4 302-574): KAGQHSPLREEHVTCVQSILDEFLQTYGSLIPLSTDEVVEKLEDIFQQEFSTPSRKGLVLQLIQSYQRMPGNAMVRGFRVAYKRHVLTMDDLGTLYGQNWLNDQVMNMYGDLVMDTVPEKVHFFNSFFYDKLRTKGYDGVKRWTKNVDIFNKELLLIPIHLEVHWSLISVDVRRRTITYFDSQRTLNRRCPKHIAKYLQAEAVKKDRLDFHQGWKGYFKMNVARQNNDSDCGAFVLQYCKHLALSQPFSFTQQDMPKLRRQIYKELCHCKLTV

[3] = target: T2, MBP-SENP3^(311–574 C532S), fixed-arm MBP fusion of the SENP3 catalytic domain (human, UniProt Q9H4L4 311-574, C532S); assay: crystal structure; MBP-SENP3 (311-574, C532S) with 1.5x molar excess of sPELP1 peptide; sitting drop, 0.085 to 0.1 M Hepes pH 7.5, 17 to 20% PEG8000, 4°C; 2.93 Å; details: both partners purified
T2 construct: human SENP3 catalytic domain with the three-helix bundle, Glu311-Val574, catalytic-dead C532S; In the PDB model MBP residues are labeled 1 to 370 and SENP3 residues 1311 to 1574; also called MBP(wt)-SENP3; pMALX(wt)-SENP3 (Glu311-Val574/C532S); source: E. coli Rosetta2 (DE3), purified (amylose resin, Superdex200 SEC); not shown: MBP (fixed-arm fusion, pMALX(wt)), N-terminal, kept
T2 sequence (Q9H4L4 311-574 C532S): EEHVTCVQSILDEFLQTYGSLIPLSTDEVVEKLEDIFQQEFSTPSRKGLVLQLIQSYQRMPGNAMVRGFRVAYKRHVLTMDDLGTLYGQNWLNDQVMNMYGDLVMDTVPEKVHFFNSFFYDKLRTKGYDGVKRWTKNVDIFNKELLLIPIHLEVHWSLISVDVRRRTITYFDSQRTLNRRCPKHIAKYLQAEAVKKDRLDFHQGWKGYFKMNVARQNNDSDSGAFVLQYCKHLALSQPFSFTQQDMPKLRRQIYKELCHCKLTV

[4] = target: T3, exogenous rixosome subcomplex (PELP1, TEX10, WDR18, and SENP3) purified by GFP-TEX10 wild type (human, UniProt Q9NXF1 1-929; Q8IZL8 1-1130; Q9BV38 1-432; Q9H4L4 1-574); assay: pull-down; GFP-TEX10 rixosome subcomplexes affinity purified from HEK293FT and kept on anti-GFP Sepharose (ATP and low-salt washes); incubated with recombinant ncPRC1.4 (0.177 mg/ml) in 0.2 ml low-salt buffer (50 mM Hepes pH 7.5, 200 mM NaCl, 5 mM MgCl2, 10% glycerol), 1 hour, 4°C; Western blot; details: both partners purified
T3 construct: human TEX10, wild type, bait of the subcomplex; human PELP1, exogenous; human WDR18, exogenous; human SENP3, exogenous; copy numbers in this preparation are not measured; also called immobilized TEX10 rixosome subcomplexes; TEX10 subcomplexes; not shown: GFP, N-terminal, kept; copies: + + +
T3 sequence (Q9NXF1 whole entry, chain 1 of 4): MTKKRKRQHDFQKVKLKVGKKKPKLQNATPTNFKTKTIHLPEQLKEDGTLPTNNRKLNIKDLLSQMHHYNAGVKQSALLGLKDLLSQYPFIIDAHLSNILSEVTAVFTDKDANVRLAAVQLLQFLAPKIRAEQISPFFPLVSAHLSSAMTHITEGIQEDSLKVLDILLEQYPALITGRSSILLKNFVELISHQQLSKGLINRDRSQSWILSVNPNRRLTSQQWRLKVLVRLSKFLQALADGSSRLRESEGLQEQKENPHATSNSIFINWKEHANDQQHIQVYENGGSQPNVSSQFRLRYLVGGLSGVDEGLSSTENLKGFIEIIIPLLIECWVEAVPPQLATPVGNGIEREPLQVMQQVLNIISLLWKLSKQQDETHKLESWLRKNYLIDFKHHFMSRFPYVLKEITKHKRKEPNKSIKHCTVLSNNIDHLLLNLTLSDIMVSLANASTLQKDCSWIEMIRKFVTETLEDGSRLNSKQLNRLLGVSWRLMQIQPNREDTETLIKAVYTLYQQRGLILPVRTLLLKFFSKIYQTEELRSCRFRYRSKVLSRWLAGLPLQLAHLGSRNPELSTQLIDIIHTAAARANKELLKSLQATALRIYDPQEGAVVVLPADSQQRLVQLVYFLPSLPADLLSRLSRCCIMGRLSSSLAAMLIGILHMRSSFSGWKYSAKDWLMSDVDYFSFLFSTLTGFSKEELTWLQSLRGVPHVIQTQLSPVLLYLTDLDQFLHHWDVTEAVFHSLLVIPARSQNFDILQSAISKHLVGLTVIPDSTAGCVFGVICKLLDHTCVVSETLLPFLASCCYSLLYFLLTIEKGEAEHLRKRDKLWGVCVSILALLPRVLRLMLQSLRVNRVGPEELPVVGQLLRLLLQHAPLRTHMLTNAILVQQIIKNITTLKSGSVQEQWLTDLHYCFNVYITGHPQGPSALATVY
T3 sequence (Q8IZL8 whole entry, chain 2 of 4): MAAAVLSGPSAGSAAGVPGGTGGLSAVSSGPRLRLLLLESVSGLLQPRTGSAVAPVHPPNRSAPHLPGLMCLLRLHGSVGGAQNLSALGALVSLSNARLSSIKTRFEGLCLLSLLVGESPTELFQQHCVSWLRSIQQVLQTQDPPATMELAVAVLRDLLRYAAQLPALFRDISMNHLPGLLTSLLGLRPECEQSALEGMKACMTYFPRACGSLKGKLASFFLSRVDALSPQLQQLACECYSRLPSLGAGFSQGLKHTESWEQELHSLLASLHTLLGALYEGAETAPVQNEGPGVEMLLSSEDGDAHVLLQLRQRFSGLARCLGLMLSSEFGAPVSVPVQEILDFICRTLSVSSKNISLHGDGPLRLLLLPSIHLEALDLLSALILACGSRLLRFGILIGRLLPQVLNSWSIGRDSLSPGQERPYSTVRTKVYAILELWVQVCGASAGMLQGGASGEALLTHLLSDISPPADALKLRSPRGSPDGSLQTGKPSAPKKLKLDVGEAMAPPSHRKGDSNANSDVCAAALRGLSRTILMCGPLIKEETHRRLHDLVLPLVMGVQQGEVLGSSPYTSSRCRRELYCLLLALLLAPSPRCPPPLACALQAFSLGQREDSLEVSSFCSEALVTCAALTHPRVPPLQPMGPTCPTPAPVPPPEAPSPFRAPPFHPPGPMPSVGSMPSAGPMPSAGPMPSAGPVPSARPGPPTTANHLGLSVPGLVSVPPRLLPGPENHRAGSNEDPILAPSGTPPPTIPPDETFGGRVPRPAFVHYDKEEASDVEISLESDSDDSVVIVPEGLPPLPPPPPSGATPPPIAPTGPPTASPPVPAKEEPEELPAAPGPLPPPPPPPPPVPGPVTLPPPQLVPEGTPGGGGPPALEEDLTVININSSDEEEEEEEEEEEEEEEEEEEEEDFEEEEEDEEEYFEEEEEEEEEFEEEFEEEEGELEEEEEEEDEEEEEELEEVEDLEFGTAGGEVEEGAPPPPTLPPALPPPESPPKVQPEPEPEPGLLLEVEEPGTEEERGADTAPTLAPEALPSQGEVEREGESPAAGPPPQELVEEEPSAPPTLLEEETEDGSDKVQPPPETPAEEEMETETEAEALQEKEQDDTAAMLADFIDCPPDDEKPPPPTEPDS
T3 sequence (Q9BV38 whole entry, chain 3 of 4): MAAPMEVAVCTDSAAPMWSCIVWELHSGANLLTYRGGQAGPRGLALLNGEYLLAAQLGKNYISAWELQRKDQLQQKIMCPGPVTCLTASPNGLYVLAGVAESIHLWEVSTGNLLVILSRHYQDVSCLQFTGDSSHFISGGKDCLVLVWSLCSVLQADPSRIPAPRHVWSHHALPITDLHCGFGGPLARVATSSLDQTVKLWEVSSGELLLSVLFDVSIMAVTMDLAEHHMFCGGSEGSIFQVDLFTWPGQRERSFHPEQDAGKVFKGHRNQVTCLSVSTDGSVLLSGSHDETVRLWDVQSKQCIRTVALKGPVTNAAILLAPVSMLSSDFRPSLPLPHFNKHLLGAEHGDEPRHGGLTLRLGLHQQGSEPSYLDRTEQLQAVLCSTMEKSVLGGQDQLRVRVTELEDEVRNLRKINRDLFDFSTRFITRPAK
T3 sequence (Q9H4L4 whole entry, chain 4 of 4): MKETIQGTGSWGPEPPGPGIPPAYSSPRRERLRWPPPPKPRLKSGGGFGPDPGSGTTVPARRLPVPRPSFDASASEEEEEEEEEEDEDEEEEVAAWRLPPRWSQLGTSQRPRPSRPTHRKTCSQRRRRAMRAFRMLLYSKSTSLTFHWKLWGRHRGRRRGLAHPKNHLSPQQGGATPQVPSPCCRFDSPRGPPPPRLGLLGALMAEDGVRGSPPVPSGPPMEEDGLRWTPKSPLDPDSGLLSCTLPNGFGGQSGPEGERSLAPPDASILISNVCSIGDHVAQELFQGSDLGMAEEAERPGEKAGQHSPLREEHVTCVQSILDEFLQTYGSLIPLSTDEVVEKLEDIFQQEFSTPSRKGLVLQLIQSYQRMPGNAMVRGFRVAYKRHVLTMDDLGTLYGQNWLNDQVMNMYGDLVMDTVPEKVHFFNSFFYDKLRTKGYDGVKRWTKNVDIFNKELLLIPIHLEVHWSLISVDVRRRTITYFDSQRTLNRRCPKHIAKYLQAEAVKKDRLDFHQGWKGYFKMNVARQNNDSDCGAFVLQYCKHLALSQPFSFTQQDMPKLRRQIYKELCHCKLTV

MBP-PELP1^887–966 (from UniProt Q8IZL8 887-966) (domain or fragment)
stoichiometry N (copies per histone octamer) [1]: 2

MBP-PELP1^800–1130 (from UniProt Q8IZL8 800-1130) (domain or fragment)
stoichiometry N (copies per histone octamer) [1]: 2

B1: 6×-HIS-MBP-PELP1 761 to 796aa (SENP3 binding motif peptide) (domain or fragment, human, UniProt Q8IZL8 761-796, looked up)
chain: PRPAFVHYDKEEASDVEISLESDSDDSVVIVPEGLP
notes: human PELP1 IDR, residues 761 to 796 with the SLiM; legends and the purification paragraph print 761 to 796aa; also called MBP-PELP1^SLiM; PELP1^SLiM-containing peptide 761 to 796aa; source: E. coli, purified (His60 Ni resin, S200 gel filtration); not shown: MBP, N-terminal, kept
binding result [2]: binds

B2: sPELP1 peptide (PELP1 residues Ala764-Glu781) (peptide, UniProt Q8IZL8 764-781, looked up)
peptide: AFVHYDKEEASDVEISLE
notes: also called short (s) PELP1; PELP1^SLiM peptide (764 to 781aa); source: synthetic peptide (GenScript)
binding result [3]: binds

B3: recombinant human noncanonical PRC1.4 complex (RING1B-BMI1-RYBP) (complex)
chain 1: MSQAVQTNGTQPLSKTWELSLYELQRTPQEAITDGLEIVVSPRSLHSELMCPICLDMLKNTMTTKECLHRFCADCIITALRSGNKECPTCRKKLVSKRSLRPDPNFDALISKIYPSRDEYEAHQERVLARINKHNNQQALSHSIEEGLKIQAMNRLQRGKKQQIENGSGAEDNGDSSHCSNASTHSNQEAGPSNKRTKTSDDSGLELDNNNAAMAIDPVMDGASEIELVFRPHPTLMEKDDSAQTRYIKTSGNATVDHLSKYLAVRLALEELRSKGESNQMNLDTASEKQYTIYIATASGQFTVLNGSFSLELVSEKYWKVNKPMELYYAPTKEHK
chain 2: MHRTTRIKITELNPHLMCVLCGGYFIDATTIIECLHSFCKTCIVRYLETSKYCPICDVQVHKTRPLLNIRSDKTLQDIVYKLVPGLFKNEMKRRRDFYAAHPSADAANGSNEDRGEVADEDKRIITDDEIISLSIEFFDQNRLDRKVNKDKEKSKEEVNDKRYLRCPAAMTVMHLRKFLRSKMDIPNTFQIDVMYEEEPLKDYYTLMDIAYIYTWRRNGPLPLKYRVRPTCKRMKISHQRDGLTNAGELESDSGSDKANSPAGGIPSTSSCLPSPSTPVQSPHPQFPHISSTMNGTSNSPSGNHQSSFANRPRKSSVNGSSATSSG
chain 3: MTMGDKKSPTRPKRQAKPAADEGFWDCSVCTFRNSAEAFKCSICDVRKGTSTRKPRINSQLVAQQVAQQYATPPPPKKEKKEKVEKQDKEKPEKDKEISPSVTKKNTNKKTKPKSDILKDPPSEANSIQSANATTKTSETNHTSRPRLKNVDRSTAQQLAVTVGNVTVIITDFKEKTRSSSTSSSTVTSSAGSEQQNQSSSGSESTDKGSSRSSTPKGDMSAVNDESF
notes: human RING1B, full length; human BMI1, full length; human RYBP, full length; also called ncPRC1.4; not shown: SUMO-10xHis, N-terminal, cleaved; copies: + +
binding result [4]: binds
